Experiment [1] deals with TβRI L45 loop region peptide (F-Ahx-ADNKDNGT). Kind of experiment: Fluorescence anisotropy binding to TβRI L45 peptide. The note with it: 20 mM Tris, pH 7.9, 160 mM NaCl, 10-min incubation, average ±S.D., n = 3. The source says:
(§1) However, this tentative assignment has been confirmed neither by a high-resolution structure of the Smad2-TβRI complex nor by a quantitative and systematic binding study, leaving uncertainty about the exact nature of the Smad2-TβRI-binding interface. Since the L3 loop is a part of the newly identified PI(4,5)P2-binding site, we checked if these PI(4,5)P2-binding residues are also involved in the Smad2-TβRI interaction using two fluorescein-labeled synthetic peptides derived from the GS region (i.e., GS peptide: fluorescein-aminohexanoyl (F-Ahx)-YDMTTpSGpSGpSGLPLL) and the L45 loop (i.e., L45 peptide: F-Ahx-ADNKDNGT), respectively. In particular, the GS peptide represents the GS motif triply phosphorylated by TβRII. We then measured binding to Smad2 WT and mutants to these peptides by fluorescence anisotropy according to our established protocol ([21]). […] We thus primarily used the GS peptide to assess the effects of mutations on the Smad2-TβRI interaction. […] They also yielded distinct structural variants for further functional studies. Specifically, W422A and Y426A could serve as specific PI(4,5)P2 binding-compromised mutants and K420A as a predominantly TβRI binding-compromised mutant. R427A/R428A could also serve as a PI(4,5)P2 and TβRI binding-compromised mutant, whereas E425K as a PI(4,5)P2 and TβRI binding-enhanced mutant.
(§2) Figure 3 Affinity of Smad2 WT and mutants for TβRI-derived peptides determined by fluorescence anisotropy.A, binding of Smad2 WT (black), W422A (red), Y420A (cyan), R427A/R428A (green), K420A (blue), and E425K (orange) to the GS peptide (F-Ahx-YDMTTpSGpSGpSGLPLL). […] B, binding of Smad2 WT (black), W422A (red), Y420A (cyan), R427A/R428A (green), K420A (blue), and E425K (orange) to the L45 loop peptide (F-Ahx-DNKDNGT). C, effects of 50 μM POPC/POPS/PI(4,5)P2 (77:20:3) LUVs on binding of Smad2 to the GS peptide. The presence of vesicles (orange) raises the Kd value from 20 ± 6 to 60 ± 7 nM. The peptide concentration was fixed at 2.5 nM, and the Smad2 concentration was varied from 0 to 150 μM. The experimentally observed anisotropy (A) values were normalized (Anorm) using the equation: Anorm = (A − Amin)/(Amax − Amin) where Amax and Amin are maximal and minimal A values, respectively, for each measurement. The plots of Anormversus [Smad2] were analyzed by the nonlinear least-squares analysis using the equation: Anorm = 1/(1 + Kd/[Smad2]).
(§3) The fluorescein-6-aminohexanoyl (F-Ahx)-labeled TβRI GS region peptide (F-Ahx-YDMTTpSGpSGpSGLPLL) was dissolved in dimethyl sulfoxide to yield 1 mg/ml stock solution, F-Ahx-labeled TβRI L45 loop region peptide (F-Ahx-ADNKDNGT) was dissolved in a 3:1 mixture of water and acetonitrile to yield 2.5 mg/ml stock solution. Both peptide solutions were diluted to 1 to 10 μM with 20 mM Tris buffer, pH 7.9, containing 160 mM NaCl for binding studies. In total, 300 μl of the Smad2 (WT or mutant) solution (0–250 μM) was added to a series of 1.5 ml microcentrifuge containing the peptide solution (2.5 μM). After 10-min incubation in the dark, the mixture was transferred to a quartz cuvette with 2-mm path length and fluorescence anisotropy (r) was measured with excitation and emission wavelengths set at 485 and 535 nm, respectively, using Horiba Flurolog-3 spectrofluorometer. Since Po >> Pepo under our conditions, the Kd for the Smad2-peptide binding was determined by the nonlinear least-squares analysis of the binding isotherm using the Equation 1:(1) Pepbound/Pep0=Δr/Δrmax=1/1+kd/P0 where Pepbound, Pep0, and P0 indicate the concentration of bound peptide, total peptide, and total Smad2, respectively, and Δr and Δrmax are the anisotropy change for each P0 and the maximal Δr, respectively.

Experiment [2] relates to TβRI GS region peptide (F-Ahx-YDMTTpSGpSGpSGLPLL). The experiment in a line: Fluorescence anisotropy binding to TβRI GS peptide.
From the text: as §1, §2, §3
A general note: In fluorescence polarisation assays a small probe gives low polarisation when free and higher when bound to something large.

Where two headings read alike, the source gives them in different places.

By Kd is commonly meant the concentration at which binding is half-saturated.

B1: Smad2 WT: bacterially expressed full-length Smad2 wild-type (protein)
chain: MSSILPFTPPVVKRLLGWKKSAGGSGGAGGGEQNGQEEKWCEKAVKSLVKKLKKTGRLDELEKAITTQNCNTKCVTIPSTCSEIWGLSTANTVDQWDTTGLYSFSEQTRSLDGRLQVSHRKGLPHVIYCRLWRWPDLHSHHELKAIENCEYAFNLKKDEVCVNPYHYQRVETPVLPPVLVPRHTEILTELPPLDDYTHSIPENTNFPAGIEPQSNYIPETPPPGYISEDGETSDQQLNQSMDTGSPAELSPTTLSPVNHSLDLQPVTYSEPAFWCSIAYYELNQRVGETFHASQPSLTVDGFTDPSNSERFCLGLLSNVNRNATVEMTRRHIGRGVRLYYIGGEVFAECLSDSAIFVQSPNCNQRYGWHPATVCKIPPGCNLKIFNNQEFAALLAQSVNQGFEAVYQLTRMCTIRMSFVKGWGAEYRRQTVTSTPCWIELHLNGPLQWLDKVLTQMGSPSVRCSSMS
modifications: left off: His6, N-terminal, state not stated
notes: bacterially expressed full-length Smad2 wild-type
Turning to B1, the dissociation constant (Kd) in experiment [1] was determined as 66 ± 4 µM; in experiment [2] (fluorescence anisotropy, 20 mM Tris, pH 7.9, 160 mM NaCl, 10-min incubation, average ±S.D., n = 3, read-out: Kd for peptide binding, GS peptide) it was 20 ± 6 µM; in experiment [2] (with 50 μM POPC/POPS/PI(4,5)P2 (77:20:3) LUVs, fluorescence anisotropy, Smad2 0 to 150 μM, read-out: Kd, GS peptide, in the presence of vesicles) it was 0.06 ± 0.007 µM; in experiment [2] (without LUVs, fluorescence anisotropy, Smad2 0 to 150 μM, read-out: Kd, GS peptide, without vesicles) it was 0.02 ± 0.006 µM. Also, the “effect of PI(4,5)P2 LUVs on binding to the GS peptide” value in experiment [2] (50 μM POPC/POPS/PI(4,5)P2 (77:20:3) LUVs) is reported as “significantly interfered with binding of Smad2 to the GS peptide”. For the same molecule, in experiment [2] (fluorescence anisotropy, Kd comparison), the “binding to GS peptide relative to L45 peptide” value was 3.3 times.

(Values after paper PMC8567202, “Phosphoinositide-binding activity of Smad2 is essential for its function in TGF-β signaling” (The Journal of Biological Chemistry, 2021).)
